Experimental data from the DeepSol protein solubility set.

Experiment: soluble on expression in E. coli; label from the status in PepcDB or PDB records

Sequence	soluble on expression in E. coli
MSLGDQYTYYMNEKEFSDFKEKSQGNYMGIGIQVAVKDGKIVVISPIQGGPAEKAGIKTGDIILKVNGEPVSGNELDKAVSMMKGTTKENIKLTLYREGHHHHPPLIRIRAPSTSLRPHSSTTTTTTEIRLLTKPERKLSWLLPPLSNN	soluble
MYNKDDVLKQADNIANKIKNLDTIKTYQQIEAQIHQNQTIKTKMDMLKKHQKQAVNFQNYGKQNALEQSEHTIQSIEAEINTLPIVEQFQTSQYEANQLLKMFVSTMETRLNDHNKAKHSDLEHHHHHH	not soluble
MQVLRLMALPLFALSLSVSITGCDQKNDTLQGKQNNMTAFIKKIAASKESEETQRYVGNLNGIEIKLTYYYKGDIVLRQISEHKLLYKTLKANNKEEAQKMLSQVGEAYQGMPGLTERIDYYDSYATEYVDINFTQAKISDLCKLPGSSIDNCSAYYLSMIRSQKLLEESGYHRIN	not soluble
MGSSHHHHHHSSGLVPRGSHMVAFLRGDRRKENSDNFRTRNSILGDIINSSPATVGKAQYLTYLAQPIEPSGNYSTFAEAQKTRAPRVYVGANDGMLHGFDTDGNETFAFIPSAVFEKMHKLTARGYQGGAHQFYVDGSPVVADAFFGGAWHTVLIGSLRAGGKGLFALDVTDPANIKLLWEIGVDQEPDLGYSFPKPTVARLHNGKWAVVTGNGYSSMNDKAALLIIDMETGAITRKLEVTGRTGVPNGLSSPRLADNNSDGVADYAYAGDLQGNLWRFDLIAGKVNQDDPFSRANDGPAVASSFRVSFGGQPLYSAVDSAGAAQAITAAPSLVRHPTRKGYIVIFGTGKYFENADARADTSRAQTLYGIWDQQTKGEAAGSTPRLTRGNLQQQTLDLQADSTFASTARTIRIASQNPVNWLNNDGSTKQSGWYLDFMVNGTLKGEMLIEDMIAIGQVVLLQTITPNDDPCADGASNWTYGLDPYTGGRTSFTVFDLARQGVVDSKSDYSYNKQNVAVSGTEQKGLGGLTLSTNEQGNPEVCSSGECLTVNPGPNTRGRQNWRPIEGKN	soluble
MKGQVVSLHLGLGSGLPKPRVEALELVAGFGAKGDRHAGKDPDRAVLVAGLSAYEKAQGAGIPLPYGALGENLLLDLDPHALPPGARLRVGEALLELSQVCPVCKSLSQFDLRLPKLLYGGRGVYARVLEGGVVRVGDPVLVLAPAR	soluble
MSNDHLETTGSSDPNTNLLKYLPIVLNPDRTITRPIQIPSTAASPDPTSSSPVLTKDLALNPLHNTFVRLFLPRHALYNSAKLPLVVYFHGGGFILFSAASTIFHDFCCEMAVHAGVVIASVDYRLAPEHRLPAAYDDAMEALQWIKDSRDEWLTNFADFSNCFIMGESAGGNIAYHAGLRAAAVADELLPLKIKGLVLDEPGFGGSKRTGSELRLANDSRLPTFVLDLIWELSLPMGADRDHEYCNPTAESEPLYSFDKIRSLGWRVMVVGCHGDPMIDRQMELAERLEKKGVDVVAQFDVGGYHAVKLEDPEKAKQFFVILKKFVVDSCTTKLKLN	soluble
VSEEELKLILAGAEESGAIEPQEEEMIHSILELEETPVREIMTPRVEMVAIEDEATLEDLLALYREHRYSRVPVYRESVDHIVGVAYVQDLLTYYCEEDLKAFKVASIAHPPYFVPENMDAWSLLKELRRRKVHMAIVVDEFGGTAGLVTLEDVIEEIVGEI	not soluble
MTPFMTEDFLLDTEFARRLYHDYAKDQPIFDYHCHLPPQQIAEDYRFKNLYDIWLKGDHYKWRAMRTNGVAERLCTGDASDREKFDAWAATVPHTIGNPLYHWTHLELRRPFGITGKLLSPSTADEIWNECNELLAQDNFSARGIMQQMNVKMVGTTDDPIDSLEHHAEIAKDGSFTIKVLPSWRPDKAFNIEQATFNDYMAKLGEVSDTDIRRFADLQTALTKRLDHFAAHGCKVSDHALDVVMFAEANEAELDSILARRLAGETLSEHEVAQFKTAVLVFLGAEYARRGWVQQYHIGALRNNNLRQFKLLGPDVGFDSINDRPMAEELSKLLSKQNEENLLPKTILYCLNPRDNEVLGTMIGNFQGEGMPGKMQFGSGWWFNDQKDGMERQMTQLAQLGLLSRFVGMLTDSRSFLSYTRHEYFRRILCQMIGRWVEAGEAPADINLLGEMVKNICFNNARDYFAIELN	soluble
MDMMMDKQEIKREYIEQEGHFETKSRRRELHIEILSEQTKSDIRNSKLVVMN	soluble
GSRPGPASQLPRFVRVNTLKTCSDDVVDYFKRQGFSYQGRASSLDDLRALKGKHFLLDPLMPELLVFPAQTDLHEHPLYRAGHLILQDRASCLPAMLLDPPPGSHVIDACAAPGNKTSHLAALLKNQGKIFAFDLDAKRLASMATLLARAGVSCCELAEEDFLAVSPSDPRYHEVHYILLDPSCSGSGMPSRQLEEPGAGTPSPVRLHALAGFQQRALCHALTFPSLQRLVYSTCSLCQEENEDVVRDALQQNPGAFRLAPALPAWPHRGLSTFPGAEHCLRASPETTLSSGFFVAVIERVEVPRRARG	soluble
MSFSERLLAAWYQGHPALALLRPLEALYRRVANGRRADFLSGRKPAYRAPLPVLVVGNITVGGTGKTPMILWMIEHCRARGLRVGVISRGYGARPPTTPWRVRAEQDAAEAGDEPLMIVRRSGVPLMIDPDRPRALQALLAEEQLDLVLCDDGLQHYRLARDLELVLIDAARGLGNGRCLPAGPLREPAERLESVDALLYNGADEDPDGGYAFRLQPTALINLQSGERRPLEHFPAGQEVHALAGIGNPQRFFRTLEALHWRAIPHAFPDHATYTAAELAFSPPLPLLMTEKDAVKCRAFAAADWWYLAVDAVPSPAFVAWFDARLEH	not soluble
MHKLIIKYNKQLKMLNLRDGKTYTISEDERADITLKSLGEVIHLEQNNQGTWQANHTSINKVLVRKGDLDDITLQLYTEADYASFAYPSIQDTMTIGPNAYDDMVIQSLMNAIIIKDFQSIQESQYVRIVHDKNTDVYINYELQEQLTNKAYIGDHIYVEGIWLEVQADGLNVLSQNTVASSLIRLTQEMPHAQADDYNTYHRSPRIIHREPTDDIKIERPPQPIQKNNTLEHHHHHH	soluble
MSVHPAVQSLCEQPIDTIGLTAVSAVASALGDVSTATDLIQRPEQEKALHDLLKKCMSILNNSGKNSALRLACLECLYVLSQPPIPAFRTGLLCNTLNSVNSSVEEMLARTGPSEAESSSSAREMFTVLVFRFTNYDTKVARLLLQHMCDGDVGTMMQTLLRVMVQHCETCEWPLLQAALQSLYELTVPTTYYATGKDGAAEPSFDSAATATGSSLQSFTVESFQDRIAVLLTEMRNHRLLEKLLASLRLSWHESTHNRSPPSLAQGCAESVALGALGCPDVAHTVTSASAEQQMELLNWLSAFTLLCRALDNMVEFCRDAKLAREVRARLLSDPSCHDWLASAAVPAVIAAIQVWMSDDGASATPAAISDGSAGPFATAKVKLSLLTAAVTLLRLLRFALYKPAMGFTAALLSSMGCLAAQVQRGEPHLRLQYGGMQVMLLTVECLVNMNAVAVTSPVNLSESYRGLLRTIAADKTRCTLSNCSSDVSSDHGAVAERQPDALMPVAEWFILCVREEESPFCDIDSGNASVALLHECFASEEARLQDAADRVADLAALESQLAMMQNFLLLMTLTELLSGLPDGGLERLTQPGPRRRNSATDAEQKPPNNSDSSSRRCKLSKKKVSHHPAAYVCDLTGKLMREPVVLKGGHRFEFDALQNVILQVGHVDPISGESIDEDVEVNIPLQQEIAAYRVKRASEKGGS	not soluble
MGCVGAGADAEGREARKVNKQIEEQLAKDKQVMRATHRLLLLGAGESGKSTIVKQMRILHINGFNEAEKREKITDIRRNVRDAMQVILRAMDEIVPKVSLDDPSTAISRDYILRITNDPEDNYPSEFYDHILTCWKDKGVMACYERSSEYQLIDCAQYFLDKVDVVRQNNYDPSEQDILRCRVMTTGIFETKFEVDKVRFHMFDVGGQRDERRKWIQCFNDVTAIIFVCASSSYNLVLWEDNTQNRLRESLALFKNIWNNRWLKTISVILFLNKQDLLSEKIKAKRYLLESFFPEFEGYNLPNDAVFDNQEDKDVVRAKYFIRGEFLRISTANSDGRHHCYPHFTCAVDTENIRRVFNDCRDIIQRIHLRQYELL	not soluble
MGSDKIHHHHHHMYKLVIIEDEHIIRKWLRYAIDYKALDILVIGEAKDGKEGAVLIKESQPDIVLTDINMPIMTAFDMFEVTKDQTYAKIILSGYADFPNARSAIHYGVLEFLTKPIEKAALWECLQTIIAKIEKQKGSNQKTDACVYIPLPQMTDQIPEVVKDILEWVHAHFQDKISTSRLAHDLGYSESYIYQNIKKHLQMPLSDYINQYRINQAIQLMQQEPDLMVYEIAQAVGIYDYRYFDRVFKKYLGQTVKAFKEEHFMKDTDRSKPC	not soluble
MINKTKEKLILIGMPGSGKTTIGKLLAKEYNCSFCDMDDYIIQISQKSIAELFSEGEDIFRNYETQACRELSISDKTVISTGGGVIKKDVNMEILKETGIIIFIDRPIQKILEDININSRPLLKNGKDRLYNLYNERINLYKKFSDIEILNDKSLNNAVYNITNAVSENFKFDFKEK	not soluble
MIRLIFLDIDKTLIPGYEPDPAKPIIEELKDMGFEIIFNSSKTRAEQEYYRKELEVETPFISENGSAIFIPKGYFPFDVKGKEVGNYIVIELGIRVEKIREELKKLENIYGLKYYGNSTKEEIEKFTGMPPELVPLAMEREYSETIFEWSRDGWEEVLVEGGFKVTMGSRFYTVHGNSDKGKAAKILLDFYKRLGQIESYAVGDSYNDFPMFEVVDKVFIVGSLKHKKAQNVSSIIDVLEVIKHHHHHH	soluble
MSLTKSYAEEQKRSVSEKLLKEKKLSLILDLDGTIVFTNPELCIPLESEEEPITPEQGFYFEIPEQNAKVFIRFRDGIVTFMEKVSKLYDIHVVTLGQKEYAFAIVNAINKLRNIPFITGDLVTAEDCSSVIVCDEKDTNDGLIDREETNERRSVKRSIPTMGKEEMQVIVDDRIDVWDNKNVVQICEYVPSTNQVDTELVRVTEVLQNIYTKFYDEHIEDVKEILHLFRKKILENKNLYFNREGHHHHHH	soluble
MNPIHDRTSDYHKYLKVKQGDSDLFKLTVSDKRYIWYNPDPKERDSYECGEIVSETSDSFTFKTVDGQDRQVKKDDANQRNPIKFDGVEDMSELSYLNEPAVFHNLRVRYNQDLIYTYSGLFLVAVNPFKRIPIYTQEMVDIFKGRRRNEVAPHIFAISDVAYRSMLDDRQNQSLLITGESGAGKTENTKKVIQYLASVAGRNQANGSGVLEQQILQANPILEAFGNAKTTRNNNSSRFGKFIEIQFNNAGFISGASIQSYLLEKSRVVFQSETERNYHIFYQLLAGATAEEKKALHLAGPESFNYLNQSGCVDIKGVSDSEEFKITRQAMDIVGFSQEEQMSIFKIIAGILHLGNIKFEKGAGEGAVLKDKTALNAASTVFGVNPSVLEKALMEPRILAGRDLVAQHLNVEKSSSSRDALVKALYGRLFLWLVKKINNVLCQERKAYFIGVLDISGFEIFKVNSFEQLCINYTNEKLQQFFNHHMFKVEQEEYLKEKINWTFIDFGLDSQATIDLIDGRQPPGILALLDEQSVFPNATDNTLITKLHSHFSKKNAKYEEPRFSKTEFGVTHYAGQVMYEIQDWLEKNKDPLQQDLELCFKDSSDNVVTKLFNDPNIASRAKKGANFITVAAQYKEQLASLMATLETTNPHFVRCIIPNNKQLPAKLEDKVVLDQLRCNGVLEGIRITRKGFPNRIIYADFVKRYYLLAPNVPRDAEDSQKATDAVLKHLNIDPEQYRFGITKIFFRAGQLARIEEAREPN	soluble
MGSDKIHHHHHHMTWDQSPLRGGEPIVSVQSPFEAIERGPKMEMRDIDFLIIGATKSATTWLQQSLQQDPGIFMPDPELHYFSRYYERGDEWYLEHFAGQEHRRLRGEKSNSYMDVPEAAERIKEKLPEARLIAHVRNPVDRAYSDYCMLYRRAEVGRDIAQYLDPRQGAGGRFLNGGLYYQQLQGYLDRFPAEQILVLLYEDLKIDARAQLARVRGFLGLEADVPLKPLAKKVKDKSEPVVNPTLRRLLRPLKPVAAPFRQNTGFKKLRSLIAGELQYAPLSHDLRARMTDYFAPETEKLGALVGRDLTDWLRNRSPEK	not soluble
